Experimental data reported in US20090232762A1, “COMPOSITIONS FOR DELIVERY OF THERAPEUTIC AGENTS” (priority 2008, published 2009).

Key:
Format in all cases: biochemical, S. cerevisiae
[1] = substrate: Nc1cc[nH]c(=O)n1; test: Enzyme activity of yCD-His (substrate turnover); details: other: enzyme yCD-His, 10 uL of 4.52 ug/mL stock; average ±SE; 23.0 °C
Description: (§1) The S. cerevisiae yeast cytosine deaminase (yCD) enzyme was cloned and expressed. The resulting 474 bp gene was subcloned into pET-15b to facilitate purification of the protein via a fused histidine tag and transformed into competent BL21(DE3) cells for protein expression. An estimate of about 25-30 mg of pure yCD-His was collected from a 1-liter culture. Thrombin cleavage of the histidine tag on yCD-His was achieved by incubating the protein for 2 hours at 23° C. in thrombin cleavage buffer. Enzyme activity characteristics for yCD and yCD-His was investigated using both the prodrug 5FC and the enzyme's natural substrate, the DNA base cytosine. Five-FC turnover rates remained within 10^5 M^−1·s^−1 (Table 1) for both proteins (see E. Kievit et al. Cancer Res. 2000, 60:6649-6655). The diffusion controlled limit for extremely efficient enzymes and their substrates in solution is in the range 10^8-10^9 M^−1·s^−1, therefore it was concluded that yCD was a very efficient pretargeting enzyme for catalyzing 5FC to 5FU conversion, especially applicable to GDEPT.

[2] = substrate: Nc1nc(=O)[nH]cc1F; test: Enzyme activity of yCD-His (substrate turnover); details: other: enzyme yCD-His, 10 uL of 4.52 ug/mL stock; average ±SE; 23.0 °C
Description: as §1

[3] = substrate: Nc1cc[nH]c(=O)n1; test: Enzyme activity of yCD (His tag cleaved); details: other: enzyme yCD, 10 uL of 4.23 ug/mL stock; average ±SE; 23.0 °C
Description: as §1

[4] = substrate: Nc1nc(=O)[nH]cc1F; test: Enzyme activity of yCD (His tag cleaved); details: other: enzyme yCD, 10 uL of 4.23 ug/mL stock; average ±SE; 23.0 °C
Description: as §1

| Protein | Km [1] | Km [2] | Km [3] | Km [4] |
| --- | --- | --- | --- | --- |
| yCD-His (Saccharomyces cerevisiae S288C) (protein, The resulting 474 bp gene was subcloned into pET-15b; made in house; host or cells: E. coli BL21(DE3)) MVTGGMASKWDQKGMDIAYEEAALGYKEGGVPIGGCLINNKDGSVLGRGHNMRFQKGSATLHGEISTLENCGRLEGKVYKDTTLYTTLSPCDMCTGAIIMYGIPRCVVGENVNFKSKGEKYLQTRGHEVVVVDDERCKKIMKQFIDERPQDWFEDIGE | 4040 ± 1120 µM | 1000 ± 240 µM | – | – |
| yCD (Saccharomyces cerevisiae S288C) (protein, The resulting 474 bp gene was subcloned into pET-15b; histidine tag (pET-15b) (N, cleaved yes); made in house; host or cells: E. coli BL21(DE3)) MVTGGMASKWDQKGMDIAYEEAALGYKEGGVPIGGCLINNKDGSVLGRGHNMRFQKGSATLHGEISTLENCGRLEGKVYKDTTLYTTLSPCDMCTGAIIMYGIPRCVVGENVNFKSKGEKYLQTRGHEVVVVDDERCKKIMKQFIDERPQDWFEDIGE | – | – | 3750 ± 690 µM | 800 ± 180 µM |
